Reference: patent US20050048594

Target: T1, peptide ARKRERAF(3-CF3)SFGHHA
T1 chain: ARKRERAFSFGHHA

B1: serine/threonine p21-activated kinase PAK4 (protein)
chain: SPQREPQRVSHEQFRAALQLVVDPGDPRSYLDNFIKIGEGSTGIVCIATVRSSGKLVAVKKMDLRKQQRRELLFNEVVIMRDYQHENVVEMYNSYLVGDELWVVMEFLEGGALTDIVTHTRMNEEQIAAVCLAVLQALSVLHAQGVIHRDIKSDSILLTHDGRVKLSDFGFCAQVSKEVPRRKSLVGTPYWMAPELISRLPYGPEVDIWSLGIMVIEMVDGEPPYFNEPPLKAMKMIRDNLPPRLKNLHKVSPSLKGFLDRLLVRDPAQRATAAELLKHPFLAKAGPPASIVPLMRQNRTR
  phosphorylation of the peptide followed by 19F NMR (150 nM PAK4): the reaction in the presence of PAK4 results in the appearance of a 19F signal with a chemical shift similar to the shift of a phosphorylated peptide
  speed of the enzymatic reaction relative to AKT1: The speed of the enzymatic reaction of PAK4 is only 1/22 of the speed of AKT1
